The values below come from patent publication US20120177639A1.

Experiment [1] addresses protofibrils prepared from the synthetic peptide Aβ (1-42) (UniProt P05067). In words: ELISA; ratio of the EC50 on low-molecular-weight oligomers to the EC50 on protofibrils. On the technique in general: ELISA stands for enzyme-linked immunosorbent assay.
Experiment [2] shares this target. In words: ELISA, antigen coated at 1 µg/ml, anti-human Fc peroxidase detection.
In experiment [3] the target is low-molecular-weight oligomers of Aβ (1-42) (UniProt P05067). The experiment is described as above.

B1: humanized antibody LP09026 (antibody, human IgG4 S228P, kappa, V domains shown)
VH: EVQLQQSGPEVVKPGVSVKISCKGSGYTFTDYAMHWVKQSPGKSLEWIGVISTKYGKTNYNPSFQGQATMTVDKSSSTAYMELASLKASDSAIYYCARGDEGYSWGQGTSVTVSS
VL: EIVMTQTPLSLPVSLGDRASISCRSGQSLVHSNTNTYLHWYLQKPGQSPKLLIYTVSNRFSGVPDRFSGSGSGSDFTLTISRVEAEDLGVYFCSQNTFVPWTFGGGTKLEIKR
Turning to B1, the LMW/PF in experiment [1] is 705. The half-maximal effective concentration (EC50) (in general, the concentration that produces a half-maximal response) came out at 0.0587 µg/mL in experiment [2] and 41.4 µg/mL in experiment [3].

B2: humanized antibody LP09028 (antibody, human IgG4 S228P, kappa, V domains shown)
VH: EVQLQQSGPEVVKPGVSVKISCKGSGYTFTDYAMHWVKQSPGKSLEWIGVISTKYGKTNYNPSFQGQATMTVDKSSSTAYMELASLKASDSAIYYCARGDDGYSWGQGTSVTVSS
VL: EIVMTQTPLSLPVSLGDRASISCRSGQSLVHSNTNTYLHWYLQKPGQSPKLLIYTVSNRFSGVPDRFSGSGSGSDFTLTISRVEAEDLGVYFCSQNTFVPWTFGGGTKLEIKR
As for B2, the LMW/PF in experiment [1] is 244. For the same molecule, the EC50 was found to be 0.0892 µg/mL in experiment [2] and 21.8 µg/mL in experiment [3].

B3: humanized anti-peptide Aβ antibody VH1VL1 (LP09027) (antibody, human IgG4 S228P, kappa, V domains shown)
VH: EVQLQQSGPEVVKPGVSVKISCKGSGYTFTDYAMHWVKQSPGKSLEWIGVISTKYGKTNYNPSFQGQATMTVDKSSSTAYMELASLKASDSAIYYCARGDDGYSWGQGTSVTVSS
VL: EIVMTQTPLSLPVSLGDRASISCRSGQSLVHSNGNTYLHWYLQKPGQSPKLLIYTVSNRFSGVPDRFSGSGSGSDFTLTISRVEAEDLGVYFCSQNTFVPWTFGGGTKLEIKR
B3: the LMW/PF in experiment [1] is 184. Also, the EC50 in experiment [2] was 0.0798 µg/mL; in experiment [3] it was 14.7 µg/mL.
